{
  "source": "patent US11391726B2",
  "about": "“MoT cells as a therapeutic screening tool for regulatory t-cell activity” (ARIZONA BOARD OF REGENTS ON BEHALF OF ARIZONA STATE …, priority 2018, dated 2022)",
  "molecules": {"B1": {"name": "mogamulizumab (antibody, chains of the INN, looked up, V domains shown)", "VH": "EVQLVESGGDLVQPGRSLRLSCAASGFIFSNYGMSWVRQAPGKGLEWVATISSASTYSYYPDSVKGRFTISRDNAKNSLYLQMNSLRVEDTALYYCGRHSDGNFAFGYWGQGTLVTVSS", "VL": "DVLMTQSPLSLPVTPGEPASISCRSSRNIVHINGDTYLEWYLQKPGQSPQLLIYKVSNRFSGVPDRFSGSGSGTDFTLKISRVEAEDVGVYYCFQGSLLPWTFGQGTKVEIK"}},
  "key": {"[1]": {"system": "MoT cells", "experiment": "CFSE suppression assay: Mabs pre-incubated with MoT cells, then co-cultured with CD3/28-stimulated CD4+ PBMC", "assay_type": "cell-based, human", "conditions": "Mab pre-incubated with MoT cells 30 minutes, CD4+ PBMC:MoT ratio 1:1/2, CFSE flow cytometry (FIGS. 5D, 5F, 5H)", "experimental": "(§1) Suppression assays. After IRB approval at Arizona State University (protocol #0601000548), peripheral blood was collected from healthy donors. After Ficoll-Paque Plus gradient separation of the buffy coat, CD4+ cells were purified using EasySep Human CD4^+ T Cell Isolation Kit (Catalog #17952 from Stemcell Technologies). Cells were allowed to rest overnight in cIMDM at 37° C. prior to labeling with CFSE (Carboxyfluorescein succinimidyl ester, from Cayman Chemica cat #10009853) dye to track cell divisions. The following day, CD4^+ T cells were counted, stained with CFSE, washed in PBS and then plated in IMDM with 10% FBS at 3×10^5 cells per well in a 48-well plate coated with OKT3 antibody at 5.0 ug/mL for 2 hours at 37° C. then washed twice in PBS before adding soluble co-stimulatory anti-CD28 (eBioscience clone CD28.6) at 5.0 ug/mL final concentration.\nIn some studies MoT and Jurkat cells were labeled with Cell Trace FarRed dye (Thermofisher) to gate MoT and Jurkat cells away from CD4^+ PBMC in flow cytometry analysis. Two-fold serial dilutions of MoT and Jurkat cells were added to CD4^+ PBMC, starting at 1.5×10^5 MoT and Jurkat cells (1:1/2 ratio CD4^+ T cells:tumor cells). Final volume per well was 1 mL. Cells were incubated for 5 days. […]"}, "[2]": {"system": "CD4+ PBMC", "experiment": "CFSE proliferation assay: Mabs co-incubated with CD3/28-stimulated CD4+ PBMC without MoT cells", "assay_type": "cell-based, human", "conditions": "no MoT cells (FIGS. 5C, 5E, 5G)", "experimental": "as §1\n(FIG. 5A) Unstimulated PBMC. (FIG. 5B) CD3/28-stimulated CD4^+ PBMC cell division without MoT cells. (FIG. 5C) Anti-GITR, (FIG. 5E) Anti-CCR4 mogamulizumab, and (FIG. 5G) anti-PDL-1 (atezolizumab) co-incubated with PBMCs. (FIG. 5D) Anti-GITR, (FIG. 5F) anti-CCR4 (mogamulizumab), and (FIG. 5H) anti-PDL-1 (atezolizumab) co-incubated with PBMCs and MoT cells (1:½ ratio)."}},
  "data": [
    {"molecule": "B1", "values": [
      {"measurement": "reversal of MoT cell-mediated suppression of CD4+ PBMC proliferation", "setting": "[1]", "result": "None of the checkpoint inhibitor Mabs including anti-GITR reversed MoT cell-mediated suppression"},
      {"measurement": "reversal of MoT cell-mediated suppression of CD4+ PBMC proliferation", "setting": "[1]; listed as ant-CCR4", "result": "did not attenuate MoT Treg suppressive activity"},
      {"measurement": "suppression or inhibition of CD4+ PBMC proliferation by the Mab alone", "setting": "[2]", "result": "do not suppress or inhibit"}
    ]}
  ]
}
